The results in this text go back to publication PMC4755027.

This test concerns the target Human TLR4 on HEK-Blue reporter cells (human) (UniProt O00206). The conditions noted are these: scale: absorbance at 640 nm.
Chain of UniProt O00206 (O00206 24-839): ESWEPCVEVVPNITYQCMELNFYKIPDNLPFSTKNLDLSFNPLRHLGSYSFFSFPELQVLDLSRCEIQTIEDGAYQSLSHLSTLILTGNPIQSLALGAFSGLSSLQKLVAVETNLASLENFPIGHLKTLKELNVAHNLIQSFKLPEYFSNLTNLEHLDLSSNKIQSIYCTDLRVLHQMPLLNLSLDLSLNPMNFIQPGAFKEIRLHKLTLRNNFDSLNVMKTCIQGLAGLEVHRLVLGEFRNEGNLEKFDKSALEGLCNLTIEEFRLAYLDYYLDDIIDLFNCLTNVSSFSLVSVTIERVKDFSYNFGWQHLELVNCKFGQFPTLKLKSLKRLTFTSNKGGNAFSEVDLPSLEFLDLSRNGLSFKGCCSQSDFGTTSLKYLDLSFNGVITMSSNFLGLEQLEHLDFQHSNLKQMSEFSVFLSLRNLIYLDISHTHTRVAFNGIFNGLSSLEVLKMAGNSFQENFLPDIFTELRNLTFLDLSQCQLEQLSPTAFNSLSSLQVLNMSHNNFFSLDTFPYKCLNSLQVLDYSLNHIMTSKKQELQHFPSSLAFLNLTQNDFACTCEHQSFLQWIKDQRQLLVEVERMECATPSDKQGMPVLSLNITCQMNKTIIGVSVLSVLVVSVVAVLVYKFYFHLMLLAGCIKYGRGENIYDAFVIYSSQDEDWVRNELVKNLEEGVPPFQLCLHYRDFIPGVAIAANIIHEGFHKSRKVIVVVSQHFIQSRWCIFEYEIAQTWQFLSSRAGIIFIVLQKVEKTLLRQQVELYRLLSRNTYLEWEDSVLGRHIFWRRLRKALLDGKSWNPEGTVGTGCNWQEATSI

The substance “Bovine annexin A2 heterotetramer (from UniProt P04272 1-339; P60902 1-97) (complex)” showed a secreted alkaline phosphatase of HEK-Blue human TLR4 reporter cells, absorbance at 640 nm normalized to media controls, mean of three experiments of 1.7.
Consider “Human monomeric annexin A2 (from UniProt P07355 1-339) (natural protein)”, for which the secreted alkaline phosphatase of HEK-Blue human TLR4 reporter cells, absorbance at 640 nm normalized to media controls, mean of three experiments; significantly superior to equimolar ANXA2t was determined as 2.7.
